Experimental data: patent US20170340735A1 (published 2017)

Tests used:
[1] = target: T1, recombinant monomeric cynomolgus monkey TIGIT-His (cynomolgus monkey); assay: BLI (Octet QKe), SEC1 on AMC sensor, cynomolgus monkey TIGIT-His in solution
T1 construct: also called Cyno TIGIT His; cTIGIT; not shown: His tag

[2] = target: T2, recombinant monomeric mouse TIGIT-His (SEQ ID NO: 3) (mouse, UniProt P86176 29-148); assay: BLI (Octet QKe), SEC1 on AMC sensor, mouse TIGIT-His 33 to 1.22 nM, 1:1 global fit
T2 construct: also called mTIGIT; not shown: His tag
T2 sequence: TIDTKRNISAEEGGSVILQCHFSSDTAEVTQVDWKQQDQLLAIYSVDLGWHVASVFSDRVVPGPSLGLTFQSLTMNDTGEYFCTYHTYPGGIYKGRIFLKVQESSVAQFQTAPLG

[3] = target: T3, recombinant monomeric human TIGIT-His (human, UniProt Q495A1 22-141); assay: BLI (Octet QKe), SEC1 on AMC sensor, human TIGIT-His 33.8 to 1.25 nM, 1:1 global fit
T3 construct: also called hTIGIT; not shown: His tag
T3 sequence: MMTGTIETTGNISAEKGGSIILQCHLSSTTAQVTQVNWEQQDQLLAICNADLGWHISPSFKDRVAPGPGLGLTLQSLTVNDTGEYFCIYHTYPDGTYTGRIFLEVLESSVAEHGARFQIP

[4] = target: T4, mouse TIGIT on primary murine Tregs (mouse, UniProt P86176 29-249); assay: flow cytometry on primary murine Tregs, average
T4 construct: whole, on cells; also called Mouse Tregs
T4 sequence (looked up): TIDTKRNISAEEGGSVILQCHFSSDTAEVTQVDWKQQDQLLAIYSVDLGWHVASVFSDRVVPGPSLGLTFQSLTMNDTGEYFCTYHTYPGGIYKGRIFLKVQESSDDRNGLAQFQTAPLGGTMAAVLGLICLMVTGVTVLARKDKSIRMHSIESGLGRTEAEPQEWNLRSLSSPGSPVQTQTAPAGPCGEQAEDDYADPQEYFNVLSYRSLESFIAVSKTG

[5] = target: T5, human TIGIT on the cell surface (human, UniProt Q495A1 22-244); assay: flow cytometry on human primary CD8+ T cells
T5 construct: Expressed on engineered Jurkat cells or naturally on human primary CD8+ T cells (the cells are named under assay); also called Human TIGIT Jurkat; human TIGIT expressing Jurkat cells
T5 sequence: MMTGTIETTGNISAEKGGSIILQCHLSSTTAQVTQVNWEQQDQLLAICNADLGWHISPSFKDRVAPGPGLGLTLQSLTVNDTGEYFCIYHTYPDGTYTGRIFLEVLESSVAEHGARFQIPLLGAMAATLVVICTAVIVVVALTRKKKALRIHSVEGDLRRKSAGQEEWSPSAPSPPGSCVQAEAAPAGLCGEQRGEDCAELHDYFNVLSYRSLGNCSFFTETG

[6] = target: T6, cynomolgus monkey TIGIT on the cell surface (cynomolgus monkey); assay: flow cytometry on cynomolgus monkey primary CD8+ T cells
T6 construct: Expressed on engineered Jurkat cells or naturally on cynomolgus monkey primary CD8+ T cells (the cells are named under assay); also called Cynomolgus Monkey TIGIT Jurkat; Cynomolgus Monkey CD8
T6 sequence (chain, as listed by the source limits assumed): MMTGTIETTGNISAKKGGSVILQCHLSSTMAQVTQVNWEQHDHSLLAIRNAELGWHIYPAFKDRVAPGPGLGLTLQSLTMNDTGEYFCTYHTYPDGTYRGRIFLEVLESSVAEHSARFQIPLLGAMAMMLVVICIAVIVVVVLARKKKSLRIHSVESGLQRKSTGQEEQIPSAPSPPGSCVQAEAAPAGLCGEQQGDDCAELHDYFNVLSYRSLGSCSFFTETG

T1 sequence (chain, as listed by the source limits assumed): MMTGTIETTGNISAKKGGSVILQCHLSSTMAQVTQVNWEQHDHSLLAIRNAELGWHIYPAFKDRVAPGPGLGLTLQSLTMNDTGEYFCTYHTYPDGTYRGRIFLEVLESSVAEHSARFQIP

B1: SEC1 mouse IgG2a N297A (antibody)
heavy: EVQLVESGGGLTQPGKSLKLSCEASGFTFSSFTMHWVRQSPGKGLEWVAFIRSGSGIVFYADAVRGRFTISRDNAKNLLFLQMNDLKSEDTAMYYCARRPLGHNTFDSWGQGTLVTVSSAKTTAPSVYPLAPVCGDTTGSSVTLGCLVKGYFPEPVTLTWNSGSLSSGVHTFPAVLQSDLYTLSSSVTVTSSTWPSQSITCNVAHPASSTKVDKKIEPRGPTIKPCPPCKCPAPNLLGGPSVFIFPPKIKDVLMISLSPIVTCVVVDVSEDDPDVQISWFVNNVEVHTAQTQTHREDYASTLRVVSALPIQHQDWMSGKEFKCKVNNKDLPAPIERTISKPKGSVRAPQVYVLPPPEEEMTKKQVTLTCMVTDFMPEDIYVEWTNNGKTELNYKNTEPVLDSDGSYFMYSKLRVEKKNWVERNSYSCSVVHEGLHNHHTTKSFSRTPGK
light: DIVMTQSPSSLAVSPGEKVTMTCKSSQSLYYSGVKENLLAWYQQKPGQSPKLLIYYASIRFTGVPDRFTGSGSGTDYTLTITSVQAEDMGQYFCQQGINNPLTFGDGTKLEIKRADAAPTVSIFPPSSEQLTSGGASVVCFLNNFYPKDINVKWKIDGSERQNGVLNSWTDQDSKDSTYSMSSTLTLTKDEYERHNSYTCEATHKTSTSPIVKSFNRNEC
notes: also called SEC1 IgG2a N297A
binding result [1]: no binding (tested: 302.8 to 0.42 nM)
Kd [2]: 0.32 nM
koff [2]: 0.0006 s⁻¹
kon [2]: 1.9e+06 M⁻¹ s⁻¹
Kd [3]: 4.7 nM
koff [3]: 0.0079 s⁻¹
kon [3]: 1.7e+06 M⁻¹ s⁻¹

B2: SEC1 human IgG4 S228P (antibody)
heavy: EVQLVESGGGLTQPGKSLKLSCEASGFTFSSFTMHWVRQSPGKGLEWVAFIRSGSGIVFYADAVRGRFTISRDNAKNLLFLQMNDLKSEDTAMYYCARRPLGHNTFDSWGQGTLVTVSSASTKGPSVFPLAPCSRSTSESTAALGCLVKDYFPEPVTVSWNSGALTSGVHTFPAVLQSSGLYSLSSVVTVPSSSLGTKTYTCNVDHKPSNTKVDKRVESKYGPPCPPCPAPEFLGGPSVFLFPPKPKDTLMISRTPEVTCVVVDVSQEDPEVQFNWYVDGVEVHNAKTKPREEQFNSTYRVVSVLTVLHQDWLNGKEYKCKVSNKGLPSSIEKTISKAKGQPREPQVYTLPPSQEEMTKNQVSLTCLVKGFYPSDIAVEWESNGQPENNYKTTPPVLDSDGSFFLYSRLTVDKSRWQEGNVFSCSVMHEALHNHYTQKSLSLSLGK
light: DIVMTQSPSSLAVSPGEKVTMTCKSSQSLYYSGVKENLLAWYQQKPGQSPKLLIYYASIRFTGVPDRFTGSGSGTDYTLTITSVQAEDMGQYFCQQGINNPLTFGDGTKLEIKRTVAAPSVFIFPPSDEQLKSGTASVVCLLNNFYPREAKVQWKVDNALQSGNSQESVTEQDSKDSTYSLSSTLTLSKADYEKHKVYACEVTHQGLSSPVTKSFNRGEC
notes: Chimeric: hamster variable regions, human IgG4 S228P and human kappa constant regions; also called SEC1 (IgG4 S228P)
Kd [4]: 0.41 nM
Kd [5]: 3.6 nM
binding result [6]: no binding
